± gives the half width of the 95% confidence interval.
Assay: folding stability dG unfold from chymotrypsin proteolysis; higher = more stable
Method in brief: (§1)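 K50 was inferred by Bayesian fitting of sequencing counts obtained after protease digestion of designed mini-proteins. Unfolding free energy was derived by comparison with a sequence-predicted unfolded-state K50 and a shared folded-state K50, for each protease or both combined. The mini-proteins were under 80 residues, had no cysteine, were carried in a PA-tagged cDNA display construct, and were kept only if AlphaFold2 dimer inter-PAE exceeded 15.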

Sequence	folding stability dG unfold
KPKIVEKKEITIKLNGKTIKITLVKNKETGKYYAKIEIFEYDKNGKLVKKETITLEFDSLEDLLEALKKLAS [r1_288_TrROS_Hall]	3.67 ± 0.071 kcal/mol
MKVIEVPIEGLPVEEIRRVIEEAIEKAKAEGNPDVKIIVTVPGPPELVEATTAVVKEIADKGDVEVSVVALS [r1_387_JUSTAS]	2.82 ± 0.17 kcal/mol
SAGGKYKVEIIDPKEGEKVFIEIDEETKKITIWNAKTGEKVAEFEIKDLKEGDTITLPNGFVIKIEKESAGG [r13_720_TrROS_Hall]	4.67 ± 0.079 kcal/mol
SAGGSAGGSMTSVTTLVETETLTNGNTIVPQLVQITVTLEVPAVPPEEIKPKPAPGDRWTYYSSAGGSAGGS [r12_1031_JUSTAS]	1.1 ± 0.16 kcal/mol
SAGGSAGGSAMTPPEELKEKIAAEVSPDTTVTETFPEEPLVVKITRNPSGTITVEVVSPEELSAGGSAGGSA [r18_61_JUSTAS]	0.906 ± 0.049 kcal/mol
SAGMPGKVVTVTVPVPPELTRLTVTATAPDGSSSTFTLPPGVATTVTFTSPSSSDLSVTVTFPDGSTTGSAG [r5_664_JUSTAS]	1.16 ± 0.052 kcal/mol
SAGGSAGGSDYLMIWIPPDALKGMPPGQEIEFEIKFNGGEYKVKIKVMPHENGHYMIMITVEPSAGGSAGGS [r12_433_TrROS]	4.59 ± 0.3 kcal/mol
SAGGMPKDAPTTDLTITEIVTEPDPNSDTYIARVTTRLPDGTEIVYTLPIPADTTEEEVVERAKELLSSAGG [r13_578_JUSTAS]	2.307 ± 0.018 kcal/mol
SAGGSAGGSAGMVEVEVRKTENGNYVVTTTTVTTSPVTTPNPYTRTVTTVTTSTTVIPATSAGGSAGGSAGG [r11_403_JUSTAS]	-0.101 ± 0.23 kcal/mol
SAGGSGMEAKLLEEALEAELKAKGYKVEVKVTVTKSFSVQEGGLPSSTTTVTIEITVRDPKTGKKVSAGGSA [r2_434_JUSTAS]	3.09 ± 0.1 kcal/mol
SAGGSAGGPSLRLTFPFPPGFSVTIELFPDGTARITIHNSDGSLLLSFSIPLPPVIPPDPSSLLSAGGSAGG [r6_238_TrMRF]	2.63 ± 0.084 kcal/mol
SAGGNWRIRVKIEGPDGKTVNHWFWIPNLEDLLSFIQSQPGPKIKDVEIEPPPKDKQYYIPFTMTIPPSAGG [r13_796_TrROS]	1.87 ± 0.11 kcal/mol
SAGGWYLRIEPDDGRELEIPMNDPGLPLEDLADKLMKDMPGPMKIKVEFYHPNKPVEHTIKIPLPKNSAGGS [r16_216_TrROS]	0.436 ± 0.33 kcal/mol
SAFKIDPNGHIRIMISQDDLKQMSIEEINNLVKELAKAFPPPMKVEIHIMPPPPKPKPPPKRDDDGKPKSAG [r14_312_TrROS]	0.66 ± 0.13 kcal/mol
SAGGSAGGTIWFDNPEDVERVVKDLRQEFPPDNPIDIMIWGPGSMYVIEITPDKIKDVEVYPMDSAGGSAGG [r6_289_TrROS]	0.683 ± 0.14 kcal/mol
SAGGTMIELKSASGKTALLPLPPGTERVEREGDKWTIYLPPEYTLTVEITAPVPPSSLFDLKVLSRKLSAGG [r19_274_JUSTAS]	0.509 ± 0.35 kcal/mol
SAGGSKKKEEVKEIDVVLVEVSEEEALKLAEETGKAVIVVFPDGELRIFYPDGTVETIKLPDLEELSAGGSA [r2_34_TrROS_Hall]	0.0647 ± 0.082 kcal/mol
SKKKKKLTAEEIAKKLEEKLKEEFGIEEIKITKIEFDKETKEITITMEITYKKKKNEKITITKKIKVEDLSA [r9_1002_TrROS_Hall]	2.5 ± 0.12 kcal/mol
SVTITKDGNKITVTLSVNGPFTLQVNKESSTSSFSVPADESATLTIDVPNTTYKVVVEKPGQPVSTYDLLSA [r9_411_JUSTAS]	2.08 ± 0.17 kcal/mol
SAGGSADNTDVKTEVVGFRLPGYEGLNFLINIQPKDKPKTIFASEAELPLFEEAGIPVVFTSSLPLSAGGSA [r15_783_TrMRF]	-0.0437 ± 0.43 kcal/mol
SAGGSKKTIELVIKDKKTNKWLKITIEYDEETGEVTVTIYDKNGEVVKEIKMSKDELKKLLEKLGFSAGGSA [r2_115_TrROS_Hall]	4.37 ± 0.16 kcal/mol

Assay: folding stability dG unfold (combined trypsin and chymotrypsin); higher = more stable
Method in brief: as §1

Sequence	folding stability dG unfold
SAGGMDPDDLKGMPPEQAKDIVRDWIREYMQERNPNMPPGMKITDVPVEVRDPDNGKEIEVKVEIENYSAGG [r13_555_TrROS]	-0.242 ± 0.33 kcal/mol
SAGGSAGGSAEPEKKYNVKVTFYNPNTGELVLEAEFPNMTIDEVKELAKKLGLEIVKIEVGSAGGSAGGSAG [r3_423_TrMRF]	4.48 ± 0.13 kcal/mol
SAGKIVIDKDNMKVYVTLPNGKKIELSLEELKKLLEELKKEGKPLTAEEIAEKLKKEFPGAEVEIVPVSAGG [r19_46_TrROS_Hall]	3.69 ± 0.083 kcal/mol
SAGLEVEIVSVEYDEETNTVKVKVKVRNPETNEVTTLELTIKLPPPPPPVEKVEVKEVKDGKVTVTYEESAG [r5_150_TrROS_Hall]	1.28 ± 0.48 kcal/mol
SMTPEEEAKRKAEEEAEKLKEEIKKKLKEEGVPKNVTFKFERDIEITLTDENGNVIGTRKIKIKFTVPLPSA [r9_494_JUSTAS]	1.85 ± 0.39 kcal/mol
SAGGSAETIEIEIKVKTEEEREKLKEALKKIPSIKEVKELPDGTIKITVSKENLDKIKEALKKAGVSAGGSA [r15_834_TrROS_Hall]	3.31 ± 0.65 kcal/mol
SAGGMTITIDPTPDGVRIKIYDDGKPREIPVAPEVLELIQQNPTLEEIIRELFPPGHPIEKIEIEPWSAGGS [r16_567_TrROS]	1.15 ± 0.22 kcal/mol
SAGGSAWPAKEIAKELNPGFPVDVEPEPVPNKDGKDMVTIEARFPNGWKIQIVFRNGKPEAIQWQKSAGGSA [r15_417_TrROS]	1.97 ± 0.095 kcal/mol
SAGIPPDDPNDIYIVPVKITPVPDGSLQIEIIIVWPDGEVYTMEQEFDPNGNIEEMDMEPMPPEDIKESAGG [r19_285_TrROS]	1.2 ± 0.14 kcal/mol
SAGGSAGGSSPLLEAALEIAKTLPPDSEVELPILNPETGTFVRVRVVYDEETGEFKVESVEFSSAGGSAGGS [r12_186_TrMRF]	1.54 ± 0.1 kcal/mol

Source: the supplement of paper PMC12764529
